{
  "source": "patent US20250347705",
  "target": "human chorionic gonadotropin (hCG), alpha/beta heterodimer (Homo sapiens) (UniProt P01215+P0DN86)",
  "sequence (P01215 25-116, chain 1 of 2, other chains not shown)": "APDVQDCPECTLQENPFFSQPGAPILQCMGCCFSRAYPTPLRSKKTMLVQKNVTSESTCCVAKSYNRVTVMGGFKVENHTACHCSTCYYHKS",
  "settings": "hCG magnetic beads with qPCR, artificial urine; round 6 pool 2.54%, round 7 20.88%, round 8 22.85%",
  "data": [
    {"sequence": "TCGCACATTCCGCTTCTACCNNNNNNNNNNNNNNNNNNNNNNNNNNNNNNNNNNNNNNNNCGTAAGTCCGTGTGTGCGAA [SELEX round 9 pool]", "values": [
      {"measurement": "binding signal (% of input DNA bound)", "value": 77.4}
    ]}
  ]
}
